Test results taken from paper PMC7835349 (Communications Biology, 2021).
“And” between values parts separate entries of the source, which are not always exact repeats. Equal values may be shown once.

How the values were obtained:
[1] = in vivo; settings: beagle, dog
[2] = test system: platelets; assay: Platelet count in rats; format: in vivo
Description: Supplementary Figure 7. Effect of AZD4320 and AZD4320-dendrimer conjugates on platelet count in rats. Data for dendrimers was collected from the same rats for which cardiovascular data were acquired (see Fig. 4a and b). Data for AZD4320 was collected from a non-cardiovascular study. Each symbol represent data from an individual rat. Colours representing each compound and dose are shown on the figure.
(§1) (1 picture or pasted object on this page, not shown here)

[3] = test system: tumours; assay: Formulation dependent efficacy of AZD4320 (Fig S2a); format: in vivo; settings: single 5mg/kg IV bolus
Protocol: Supplementary Figure 2. Formulation dependent efficacy of AZD4320 (a) A single 5mg/kg
IV bolus dose of AZD4320 formulated in 30% hydroxypropyl-β-cyclodextrin (HP-β-CD)
Data in the graphs are represented as mean tumor volume
± SEM (n=5). […]
as §1

[4] = Aqueous solubility; format: physicochemical; settings: aqueous buffers at physiological pH
[5] = Plasma protein binding (unbound fraction); format: in vitro ADME; settings: pre-clinical species and human, across pre-clinical species and man
[6] = Body weight and tolerability in RS4;11 xenograft mice; format: in vivo, C.B-17 SCID mouse; settings: for Percentage Body Weight Change post Dosing: single animals
Protocol: Female C.B.−17 SCID mice were purchased from Charles River Laboratories. Mice were 5–8 weeks old at the time of tumour implantation. All xenograft studies were conducted at our Association for the Assessment and Accreditation of Laboratory Animal Care accredited facility in Waltham, MA in accordance with ethical regulations described in the guidelines established by the internal Institutional Animal Care and Use Committee. The dendrimer conjugates were formulated in citrate/phosphate buffer pH 5.0, diluted 1:10 with 5% glucose containing 1% w/v Kolliphor HS15, and AZD4320 was formulated in 30% HP-β-CD and dosed as a weekly intravenous (IV) administration at a volume of 5 ml/kg at the indicated doses. Five million RS4;11, five million SUDHL-4 or five million OCI-LY-10 cells were injected subcutaneously in the right flank of mice in a volume of 0.1 ml. Tumour volumes (measured by caliper), animal body weight, and tumor condition were recorded twice weekly for the duration of the study. The tumour volume was calculated (taking length to be the longest diameter across the tumour and width to be the corresponding perpendicular diameter) using the formula: length (mm) x width (mm)^2/0.52. For efficacy studies, mice were randomized based on tumour volumes using stratified sampling and enrolled into control and treatment groups. Tumour growth inhibition from the start of treatment was quantified by measuring the difference in tumour volume between control and treated groups. Survival analysis was evaluated using Mantel-Cox test. Tumours were also taken for bioanalysis. […]
Supplementary Figure 13. Percent total body weight change in mouse RS4;11 xenograft model (n=6). Percent change in body weight of mice measured twice weekly after start of treatment with various doses of AZD0466. […]

CN(CCO)CCC(CSc1ccccc1)Nc1ccc(S(=O)(=O)NC(=O)c2ccc(N3CCC(C(O)c4ccccc4-c4ccc(Cl)cc4)CC3)cc2)cc1S(=O)(=O)C(F)(F)F (centres unmarked) [AZD4320]
MTD at 48 h [1]: < 3 mg/kg | Platelet count, individual rat ([2]; 10mg/kg, Day 2 (3h post dose), 10 mg/kg): 31 10^9/L and 28 10^9/L and 46 10^9/L and 13 10^9/L | Platelets post-dose ([2]; rat, Dose 10 mg/kg (AZD4320 equivalent 10 for AZD4320, 3 for conjugates)): 30 109/l | efficacy ([3]; formulated in 0.5% Tween 80): no efficacy | efficacy ([3]; formulated in 30% hydroxypropyl-β-cyclodextrin): complete regression of the tumours | solubility [4]: < 1 µg/mL | fraction unbound [5]: < 3e-05

AZD4320-MIDA-PEG2100 [AZD0466]
Percentage Body Weight Change post Dosing ([6]; 10 mg/kg (3mg/kg AZD4320), day 41 post implant): 0% | Percentage Body Weight Change post Dosing ([6]; 10 mg/kg (3mg/kg AZD4320), day 44 post implant): -1.896% and 0% and -3.365% and -4.5045% and -0.9756% and 0.4739% | Percentage Body Weight Change post Dosing ([6]; 10 mg/kg (3mg/kg AZD4320), day 48 post implant): 2.37% and 2.899% and -4.327% and 0% (2×) and -0.9479% | Percentage Body Weight Change post Dosing ([6]; 10 mg/kg (3mg/kg AZD4320), day 51 post implant): -2.8436% and -2.415% and -3.365% and -4.054% and -0.9756% and -3.318% | Percentage Body Weight Change post Dosing ([6]; 10 mg/kg (3mg/kg AZD4320), day 55 post implant): 1.4218% and 2.415% and -1.923% and 0.9009% and 1.951% and 0.4739% | Percentage Body Weight Change post Dosing ([6]; 10 mg/kg (3mg/kg AZD4320), day 58 post implant): -0.9479% and -0.4831% and -2.885% and 0% and 2.927% and 0.4739% | Percentage Body Weight Change post Dosing ([6]; 10 mg/kg (3mg/kg AZD4320), day 63 post implant): 5.6872% and 4.831% and -0.9615% and 3.6036% and 7.317% and 2.8436% | Percentage Body Weight Change post Dosing ([6]; 10 mg/kg (3mg/kg AZD4320), day 66 post implant): 4.2654% and 2.415% and -4.327% and 0.4505% and 3.415% and -1.4218% | Percentage Body Weight Change post Dosing ([6]; 10 mg/kg (3mg/kg AZD4320), day 70 post implant): 2.8436% and 1.449% and -1.923% and 3.153% and 5.366% and 0.9479% | Percentage Body Weight Change post Dosing ([6]; 10 mg/kg (3mg/kg AZD4320), day 73 post implant): 3.318% and 7.246% and -1.442% and 1.8018% and 6.829% and 0% | Percentage Body Weight Change post Dosing ([6]; 10 mg/kg (3mg/kg AZD4320), day 77 post implant): 3.791% and 4.348% and -2.404% and 2.7027% and 5.854% and 0% | Percentage Body Weight Change post Dosing ([6]; 10 mg/kg (3mg/kg AZD4320), day 80 post implant): 7.109% and 6.763% and 2.404% and 9.268% and 2.8436% | Percentage Body Weight Change post Dosing ([6]; 10 mg/kg (3mg/kg AZD4320), day 83 post implant): 6.635% and 1.932% and 1.923% and 8.78% and 1.4218% | Percentage Body Weight Change post Dosing ([6]; 34 mg/kg (10mg/kg AZD4320), day 41 post implant): 0% | Percentage Body Weight Change post Dosing ([6]; 34 mg/kg (10mg/kg AZD4320), day 44 post implant): -0.9346% and -3.922% and -3.6036% and -0.5155% and -2.427% and -2.913% | Percentage Body Weight Change post Dosing ([6]; 34 mg/kg (10mg/kg AZD4320), day 48 post implant): -2.336% and -1.471% and -2.252% and -1.546% and 0% and -1.456% | Percentage Body Weight Change post Dosing ([6]; 34 mg/kg (10mg/kg AZD4320), day 51 post implant): -2.804% and -6.373% and -5.405% and -1.031% and -4.369% and -1.942% | Percentage Body Weight Change post Dosing ([6]; 34 mg/kg (10mg/kg AZD4320), day 55 post implant): -1.869% and -0.4902% and -2.252% and 1.031% and -1.942% and -0.9709% | Percentage Body Weight Change post Dosing ([6]; 34 mg/kg (10mg/kg AZD4320), day 58 post implant): -1.402% and -3.431% and -3.153% and 1.546% and -2.913% and -0.9709% | Percentage Body Weight Change post Dosing ([6]; 34 mg/kg (10mg/kg AZD4320), day 63 post implant): 2.336% and -2.451% and 0% and 5.361% and 1.942% and 6.311% | Percentage Body Weight Change post Dosing ([6]; 34 mg/kg (10mg/kg AZD4320), day 66 post implant): -2.336% and -4.412% and 0% and 1.031% and 1.456% and 6.796% | Percentage Body Weight Change post Dosing ([6]; 34 mg/kg (10mg/kg AZD4320), day 70 post implant): -0.9346% and -5.392% and 0.4505% and 2.062% and 2.913% and 2.427% | Percentage Body Weight Change post Dosing ([6]; 34 mg/kg (10mg/kg AZD4320), day 73 post implant): 2.336% and -3.431% and 2.252% and 1.546% and 3.883% and 3.398% | Percentage Body Weight Change post Dosing ([6]; 34 mg/kg (10mg/kg AZD4320), day 77 post implant): 3.271% and -3.922% and 1.351% and 3.093% and 2.913% and 2.427% | Percentage Body Weight Change post Dosing ([6]; 34 mg/kg (10mg/kg AZD4320), day 80 post implant): 4.6729% and -1.471% and 7.207% and 5.155% and 3.883% and 6.796% | Percentage Body Weight Change post Dosing ([6]; 34 mg/kg (10mg/kg AZD4320), day 83 post implant): 4.206% and -1.961% and 7.658% and 4.639% and 4.854% and 9.709% | Percentage Body Weight Change post Dosing ([6]; 103 mg/kg (30mg/kg AZD4320), day 41 post implant): 0% | Percentage Body Weight Change post Dosing ([6]; 103 mg/kg (30mg/kg AZD4320), day 44 post implant): -2.415% and -9.211% and -6.161% and -5.804% and 0% and -2% | Percentage Body Weight Change post Dosing ([6]; 103 mg/kg (30mg/kg AZD4320), day 48 post implant): -0.9662% and -3.509% and -6.161% and -4.464% and -1.415% and -2.5% | Percentage Body Weight Change post Dosing ([6]; 103 mg/kg (30mg/kg AZD4320), day 51 post implant): -1.449% and -4.386% and -7.109% and -5.357% and -2.83% and -4% | Percentage Body Weight Change post Dosing ([6]; 103 mg/kg (30mg/kg AZD4320), day 55 post implant): 0.4831% and -0.4386% and -5.213% and -3.125% and 0% and -3.5% | Percentage Body Weight Change post Dosing ([6]; 103 mg/kg (30mg/kg AZD4320), day 58 post implant): -0.9662% and -1.754% and -5.213% and -4.464% and -0.9434% and -5.5% | Percentage Body Weight Change post Dosing ([6]; 103 mg/kg (30mg/kg AZD4320), day 63 post implant): 0.4831% and 1.842% and -3.791% and -2.232% and -1.887% and -2% | Percentage Body Weight Change post Dosing ([6]; 103 mg/kg (30mg/kg AZD4320), day 66 post implant): -1.932% and -0.4386% and -4.2654% and -2.679% and -0.9434% and -2.5% | Percentage Body Weight Change post Dosing ([6]; 103 mg/kg (30mg/kg AZD4320), day 70 post implant): -1.449% and 0.4386% and -3.318% and -1.786% and -0.9434% and -8% | Percentage Body Weight Change post Dosing ([6]; 103 mg/kg (30mg/kg AZD4320), day 73 post implant): 0.4831% and 1.316% and -1.896% and -4.018% and -2.83% and -4% | Percentage Body Weight Change post Dosing ([6]; 103 mg/kg (30mg/kg AZD4320), day 77 post implant): 0.4831% and 1.316% and 0% (2×) and -2.679% and -4% | Percentage Body Weight Change post Dosing ([6]; 103 mg/kg (30mg/kg AZD4320), day 80 post implant): 4.348% and 1.754% and 2.8436% and -1.786% and 0.4717% and -3% | Percentage Body Weight Change post Dosing ([6]; 103 mg/kg (30mg/kg AZD4320), day 83 post implant): 2.415% and 3.509% and 4.2654% and -2.232% and 0.4717% and -2% | tolerability in xenograft mice ([6]; RS4;11 xenograft, all doses): well tolerated
